Data taken from article PMC12809912.
“And” between values parts separate entries of the source, which are not always exact repeats. Equal entries are not always repeated. One block for each binder: values may come before it.

Legend:
[1] = biological target: T1, synthetic DEFA5 peptide residues 54-66 (…) (human); test: SPR; synthetic peptides 54-66 (for 1A8) and 52-66 (for 4F5); who was immobilised is not told (Fig. S5)
T1 sequence (peptide): LRTSGSQARATCY

[2] = biological target: recombinant His-tagged human alpha-defensin 5 (DEFA5) construct, residues 23-94 behind a soluble fusion partner (human); test: ELISA; indirect ELISA: recombinant DEFA5 coated at 100 ng/mL in carbonate-bicarbonate buffer pH 9.6, antibodies 250-3.9 nM 1 h at room temperature; one-site specific binding fit; two experiments
[3] = biological target: T2, synthetic DEFA5 peptide residues 52-66 (…) (human); test: SPR; synthetic peptides 54-66 (for 1A8) and 52-66 (for 4F5); who was immobilised is not told (Fig. S5)
T2 sequence (peptide): SALRTSGSQARATCY

[4] = biological target: mouse monoclonal antibody clone 1A8 (anti-DEFA5); test: indirect ELISA; details: chain shown with the change;; parent: est. 2.6; read off a plot
[5] = biological target: mouse monoclonal antibody clone 4F5 (anti-DEFA5); test: indirect ELISA; details: chain shown with the change;; parent: est. 2.2; read off a plot

Sequence of recombinant His-tagged human alpha-defensin 5 (DEFA5) construct, residues 23-94 behind a soluble fusion partner (human) (Q01523 23-94): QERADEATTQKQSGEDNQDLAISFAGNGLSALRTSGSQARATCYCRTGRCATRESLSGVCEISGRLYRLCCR

Kd [1]: 303 µM | Kd [2]: 0.0421 µM and 0.0455 µM
B1: mouse monoclonal antibody clone 1A8 (anti-DEFA5) (antibody, V domains shown)
VH: QVQLQQSGAELVRPGASVKMSCKALGYTFFDYEMHWMKQTPVYGLEWIGAIHPGSGDTAYNQKFKGKATLTADKSSNTAYMELSSLTSEDSAVYYCTREGTVVAPFDYWGQGTTLTVSS
VL: DVLMTQTPLSLPVSLGDQASISCRSSQSIVHSNGNTYLEWYLQKPGQSPKLLINKVSNRFSGVPDRFSGSGSGTDFTLKISRVEAEDLGVYYCFQGSYVPYTFGGGTKLEIK

Kd [3]: 4800 µM | Kd [2]: 0.0534 µM and 0.0566 µM
B2: mouse monoclonal antibody clone 4F5 (anti-DEFA5) (antibody, V domains shown)
VH: B1 VH
VL: B1 VL

response [4]: 2.6 OD450nm | response [5]: 2.3 OD450nm
B3: peptide No. 57 of the overlapping library, DEFA5 amino acids 61-75 (…) A1del (peptide)
chain: RATCYCRTGRCATR
